Patent publication US20220324959A1 (Janssen / Centocor, published 2022)
Blank lines part the entries; values can stand above or below the binder they belong to.

Columns and labels:
recombinant human TNFα [1] = target: T1, recombinant human TNFα (human, UniProt P01375 77-233, 125I label in the receptor blocking assay); assay: inhibition of 125I-TNFα binding to plate-coated p55-sf2, hybridoma supernatant
T1 construct: also called huTNFα; tumor necrosis factor alpha
Experimental: (§1) 50:1 of p55-sf2 at 0.5:g/ml in PBS was added to Optiplates to coat the wells during a one-hour incubation at 37° C. Serial dilutions of the eight TNV cell supernatants were prepared in 96-well round-bottom plates using PBS/0.1% BSA as diluent. […] The mixture was preincubated for one hour at RT. The coated Optiplates were washed to remove unbound p55-sf2 and 50:1 of the ¹²⁵I-TNFα/cell supernatant mixture was transferred to the Optiplates. After 2 hrs at RT, Optiplates were washed three times with PBS-Tween. […] of Microscint-20 was added and the cpm bound determined using the TopCount gamma counter.
A simple binding assay was done to determine whether the eight TNV mAbs contained in hybridoma cell supernatant were capable of blocking TNFα binding to receptor. The concentrations of the TNV mAbs in their respective cell supernatants were first determined by standard ELISA analysis for human IgG.

recombinant human TNFα [2] = target: T1, recombinant human TNFα; assay: cell-based or functional assay
recombinant human TNFα [3] = target: T1, recombinant human TNFα; assay: competition radioligand assay: mAb in hybridoma supernatant preincubated with 5 ng/ml 125I-TNFα, then binding of 125I-TNFα to plate-coated p55-sf2 (TNF receptor/IgG fusion) counted as cpm bound
Experimental: Varying amounts of hybridoma cell supernatants containing known amounts of TNV mAb were preincubated with a fixed concentration (5 ng/ml) of ¹²⁵I-labeled TNFα. […] The amount of TNFα that bound to the p55 receptor in the presence of the mAbs was determined after washing away the unbound material and counting using a gamma counter. Although eight TNV mAb samples were tested in these experiments, for simplicity three of the mAbs that were shown by DNA sequence analyses to be identical to one of the other TNV mAbs (see Section 5.2.2) are not shown here. Each sample was tested in duplicate. The results shown are representative of two independent experiments.
as §1

- fold better at blocking TNF binding (against TNV118 and TNV14) (recombinant human TNFα [1]): ~4 fold
- neutralizing TNFα bioactivity (recombinant human TNFα [2]): 4 fold
- IC50 (read off the curve) (recombinant human TNFα [3]): ~4 ng/mL
B1: TNV148 (antibody, human IgG1, kappa, V domains shown)
VH: QVQLVESGGGVVQPGRSLRLSCAASGFIFSSYAMHWVRQAPGNGLEWVAFMSYDGSNKKYADSVKGRFTISRDNPKNTLYLQMNSLRAEDTAVYYCARDRGIAAGGNYYYYGMDVWGQGTTVTVSS
VL: EIVLTQSPATLSLSPGERATLSCRASQSVYSYLAWYQQKPGQAPRLLIYDASNRATGIPARFSGSGSGTDFTLTISSLEPEDFAVYYCQQRSNWPPFTFGPGTKVDIKR
notes: Hybridoma-derived fully human IgG1 kappa, tested as hybridoma supernatant; also called GenTNV148.26.12; C420A

- fold better at blocking TNF binding (against TNV118 and TNV14) (recombinant human TNFα [1]): ~4 fold
B2: TNV86 (antibody, human IgG1, kappa, V domains shown)
VH: B1 VH
VL: B1 VL
notes: Hybridoma-derived fully human IgG1 kappa, tested as hybridoma supernatant; Identity is stated for the variable regions only; also called GenTNV86.14.34; C417A
